From the nanobody polyreactivity screen of Harvey et al. (2022)

Assay: yeast display, Sf9 membrane polyspecificity reagent, FACS + sequencing; frameworks hold sequencing errors
Outline: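 A nanobody's polyreactivity label depends on the gate it was sorted from. Yeast display cells were stained with 10% biotinylated, detergent-solubilized Sf9 membrane reagent for 1 hour at 4 °C, enriched on streptavidin microbeads and sorted by FACS. The low and high (top ~1%) gates were set on anti-HA fluorescence for expression and streptavidin fluorescence for reagent binding.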

QVQLVESGGGLVQAGGSLRLSCAASGFIFKTYAMGWYRQAPGKERELVAAITGTGTSTYYADSVKGRFTISRDNAKNTVYLQMNSLKTEDTAVYYCAAEFGGRSYYPRHEYWGQGTQVTVSS
polyreactivity (PSR sort gate): low polyreactivity

QVQLVESGGGLVQAGGSLRLSCAASGFIFKYNAMGWYRQAPGKERELVAAITSSGGSTYYADSVKGRFTISRDNAKNTVYLQMNSLKPEDTAVYYCNRVRDPSYDYWGQGTQVTVSS
polyreactivity (PSR sort gate): high polyreactivity

QVQLVESGGGLVQAGGSLRLSCAASGFIFKYYAMGWYRQAPGKERELVAAISRSGGSTYYADSVKGRFTISRDNAKNTVYLLMNSLKPEDTAVYYCAADSSWVHEYYYWGQGTQVTVSS
polyreactivity (PSR sort gate): high polyreactivity

QVQLVESGGGLVQAGGSLRLSCAASGFIFKYYAMGWYRQAPGKERELVATITRRGGSTYYADSVKGRFTISRDNAKNTVYLQMNSLKPEDTAVYYCNVTPDWNARRPFDYWGQGTKVTVSS
polyreactivity (PSR sort gate): high polyreactivity

QVQLVESGGGLVQAGGSLRLSCAASGFIFLIYAMGWYRQAPGKERELVATIRYSGGRTYYADSVKGRFTISRDNAKNTVYLQMNSLKPEDTAVYYCAARSVWFSGQGRMNYWGQGTQVTVSS
polyreactivity (PSR sort gate): high polyreactivity

QVQLVESGGGLVQAGGSLRLSCAASGFIFLRYAMGWYRQAPGKERELVAAISSSGGRTTYADSVKGRFTISRDNAKNTLYLQMNSLKPEDTAVYYCNADLWPGNHDGYWGQGTQVTVSS
polyreactivity (PSR sort gate): low polyreactivity

QVQLVESGGGLVQAGGSLRLSCAASGFIFLRYGMGWYRPAPGKERELVASIDSTGGSTYADSVKGRFTISRDNAKNTVYLQMNSLKPEDTAVDYCAAAYYIVSERDYWGQGTQVTVSS
polyreactivity (PSR sort gate): low polyreactivity

QVQLVESGGGLVQAGGSLRLSCAASGFIFLSYAKGWYRQAPGKERELVATITWSGGRTYYADSVKGRFTISRDNAKNTVYLQMNSLKPEDTAVYYCAKVNTYYNIYVTFDYWGQGTQVTVSS
polyreactivity (PSR sort gate): low polyreactivity

QVQLVESGGGLVQAGGSLRLSCAASGFIFLYYAMGWYRQAPGKERELVAVITRGGRTYYADSVKGRFTISRDNAKNTVYLQMNSLKPEDTAVYYCAAKAYSYFARIGFDYWGQGTQVTVSS
polyreactivity (PSR sort gate): high polyreactivity

QVQLVESGGGLVQAGGSLRLSCAASGFIFLYYAMGWYRQAPGKERELVPYISRGADTKYADSVKGRFTISRDNAKNTVYLQMNSLKPEDTAVYYCATDITTFWFPYPGVELGYWGQGTQVTVAS
polyreactivity (PSR sort gate): low polyreactivity

QVQLVESGGGLVQAGGSLRLSCAASGFIFNDYAMGWYRQAPGKERELVAAISRSGGSTYYADSVKGRFTISRDNAKNTVYLQMNSLKAEDTAVYYCAADGLSGYRYYYWGQGTQVTVSS
polyreactivity (PSR sort gate): high polyreactivity

QVQLVESGGGLVQAGGSLRLSCAASGFIFNLYAMGWYRQAPGKERELVAAISSGGGTSYADSVKGRFTISRDNAKNTDYLQMNSLKPEDTAVYYCAKRSGTYPFNFRFDYWGQGTQVTVSS
polyreactivity (PSR sort gate): high polyreactivity

QVQLVESGGGLVQAGGSLRLSCAASGFIFNYYVMGGYRQAPGKERELVATISWRGGRTYYADSVKGRFTISRDNAKNTVYLQMNSLKPEDTAVYYCAADSFYYRPEYDYWGQGTQVTVSS
polyreactivity (PSR sort gate): low polyreactivity

QVQLVESGGGLVQAGGSLRLSCAASGFIFPANAMGWSRQAPGKEREFVAAISRSGGTTYYADSVKGRFTISRDHAKNTVYLQMNSLKPEDTAVYYCAARYAIGPGYDYWGQGTQVTVSS
polyreactivity (PSR sort gate): high polyreactivity

QVQLVESGGGLVQAGGSLRLSCAASGFIFPAYVMGWYRQAPGKERELVAAISRRGGSTYYADSVKGRFTISRDNAKNTVYLQMNRLKPEDTSVYYCAAVFKAGSAYDYWGQGTQVTVSS
polyreactivity (PSR sort gate): high polyreactivity

QVQLVESGGGLVQAGGSLRLSCAASGFIFPGYAMGWYRQAPGKERELVAAITRSGGSTYYADSVKGRFTISRDNAKNTVYLQMNSLKPEDTAVYYCAAYVSGYRWGYDYWGQGTQVTVSS
polyreactivity (PSR sort gate): high polyreactivity

QVQLVESGGGLVQAGGSLRLSCAASGFIFPGYTMGWYRQAPGKERELVAAISRGSSTYYADSVKRRFTISRDNAKNSVYLQMNSLKPEDTAVYYCAADYSYIYGFDYWGQGTQVTVSS
polyreactivity (PSR sort gate): low polyreactivity
